Data published in US5981483A, “Compositions comprising modulators of cytokines of the TGF-β superfamily” (Mount Sinai Hospital Corporation, priority 1997, dated 1999).

Key:
[1] = biological target: T1, TGF-β1 (Homo sapiens, UniProt P01137); experiment: 3H-Thymidine incorporation in Mv1Lu cells: neutralization of the antiproliferative activity of TGF-β1; type: cell-based
T1 construct: The mature processed cytokines produced from the members of the gene family show almost 100% amino acid identity between species; purchased Collaborative Research (Bedford, Mass.)
Description: Mv1Lu cells were seeded at 20,000 cells/well in a 96 well plate containing 0.2% FCS in α-MEM and incubated with the indicated concentrations of proteins for 18 hr. The cells were then pulsed with 8 μCi/ml methyl-^3 H-thymidine (NEN, Boston, Mass.) for 6 hr. Cells were trypsinized, harvested onto filtermats and counted in a β-Counter. Percent neutralization is defined as incorporation in the presence of 12 pM TGF-β1 alone set at 0%, and incorporation without additions as 100%. The difference in ^3 H-thymidine incorporation between 0% and 100% was 7.5 fold. Each point in FIG. 1 and FIG. 12 represents the mean of duplicate determinations, and the results are representative of three experiments. […] Before use, bovine thyroglobulin was spun twice in a centricon (M.W. cutoff of 10,000 Da) micro-concentrator (Amicon, Beverly, Mass.) to remove any excess Iodine and T3/T4 thyroid hormones.

[2] = biological target: T2, TGF-β2 (Homo sapiens, UniProt P61812); experiment: BIAcore surface plasmon resonance, binding to immobilized TGF-β2; conditions: ligand TGF-β2
T2 construct: The mature processed cytokines produced from the members of the gene family show almost 100% amino acid identity between species
T2 sequence (P61812 303-414 limits assumed): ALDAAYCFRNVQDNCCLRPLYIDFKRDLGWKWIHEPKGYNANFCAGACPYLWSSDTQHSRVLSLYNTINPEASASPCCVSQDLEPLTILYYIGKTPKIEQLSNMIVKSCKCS
Description: (§1) In this system, a purified protein serving as the ligand is covalently coupled to a carboxymethylated dextran surface, and binding molecules (i.e. the analyte) are passed in a fluid phase across the surface. Binding of the analyte to ligand causes a change in reflected light which is directly proportional to mass bound, and is measured in arbitrary response units (R.U.). Analyte-ligand binding is observed as both increasing response with time during the injection of analyte, and the difference in the position of the baseline before and after injection.
(§2) Schuster, R. V. Swanson, L. A. Alex, R. B. Bourret, M. I. Simon, Nature 365, 343 (1993). 1000 R.U. equals approximately 1 ng/mm^2. The running buffer was 20 mM Hepes (pH 7.2), 150 mM NaCl and the flow rate for all sensorgrams was 3 μl/min.
(§3) Regeneration of the surface to remove bound analyte was done by injection of 10 μl of 20 mM NaOH. To cyclize TRH1 peptides, the material was reduced with 5 mM DTT then brought to a final concentration of 60 μM in 25 mM ammonium acetate (pH 8.5). After stirring in the dark for 30 min at 20° C. with 30 mM potassium ferricyanide, the peptide was mixed with AG3-X4A resin (BioRad), filtered, lyophilization and desalted on a 50×2.5 cm column of Biogel P2 (Pharmacia) developed in water, and further purified by reverse phase HPLC.
Data was analyzed using the BIA-evaluation software (Pharmacia Biosensor). The association rate constant, kass, was calculated by first plotting the change in response with time versus response (i.e. dR/dT vs R). When the slope of the line from this graph is plotted versus analyte concentration (i.e d(dR/dT)/dR vs C), kass is obtained from the slope of the line. The dissociation rate constant, kdiss, is obtained during the decrease in response with time after analyte injection is discontinued. Specifically, kdiss was obtained from the slope of the line in a plot of ln(Rt1 /Rtn) vs time. The affinity constants were calculated from KD =kdiss /kass. […]

[3] = biological target: T3, BMP-2 (Homo sapiens, UniProt P12643); experiment: BIAcore surface plasmon resonance, binding to immobilized BMP-2; conditions: ligand BMP-2
T3 construct: Genetics Institute, Cambridge, Mass; (gift)
T3 sequence (P12643 283-396): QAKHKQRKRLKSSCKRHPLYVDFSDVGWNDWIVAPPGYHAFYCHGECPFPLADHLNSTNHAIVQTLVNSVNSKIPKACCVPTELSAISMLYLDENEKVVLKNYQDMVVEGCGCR
Description: as §1, §2, §3
Injection volumes were 36 μl for FIG. 2, 4 and 5 and 45 μl for FIG. 3. […] Protein concentrations in each experiment were (FIGS. 2 and 3), 2, 5, 10, 20, 30, 40 μM; (FIG. 4), 0.21, 0.31, 0.41, 0.62, 0.82, 1.24 μM; (FIG. 5), 0.22, 0.29, 0.44, 0.59, 0.88 μM. R.U. for the immobilized cytokine in each experiment was 2850 R.U. for FIGS. 2 and 3; 7450 R.U. for FIG. 4, and 5300 R.U., for FIG. 5 respectively.
Data was analyzed using the BIA-evaluation software (Pharmacia Biosensor). The association rate constant, kass, was calculated by first plotting the change in response with time versus response (i.e. dR/dT vs R). When the slope of the line from this graph is plotted versus analyte concentration (i.e d(dR/dT)/dR vs C), kass is obtained from the slope of the line. The dissociation rate constant, kdiss, is obtained during the decrease in response with time after analyte injection is discontinued. Specifically, kdiss was obtained from the slope of the line in a plot of ln(Rt1 /Rtn) vs time. The affinity constants were calculated from KD =kdiss /kass. Variance for kass is standard error of the linear regression plot, and for kdiss values are the mean ± range of 3 or more independent injections.

[4] = biological target: T4, BMP-6 (Homo sapiens, UniProt P22004); experiment: BIAcore surface plasmon resonance, binding to immobilized BMP-6; conditions: Table 1; ligand BMP-6
T4 sequence (P22004 375-513): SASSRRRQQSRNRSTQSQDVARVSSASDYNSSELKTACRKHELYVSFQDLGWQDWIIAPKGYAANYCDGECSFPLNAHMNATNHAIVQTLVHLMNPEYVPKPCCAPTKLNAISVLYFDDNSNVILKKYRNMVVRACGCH
Description: as §1, §2
Regeneration of the surface to remove bound analyte was done by injection of 10 μl of 20 mM NaOH. To cyclize TRH1 peptides, the material was reduced with 5 mM DTT then brought to a final concentration of 60 μM in 25 mM ammonium acetate (pH 8.5). […]
Data was analyzed using the BIA-evaluation software (Pharmacia Biosensor). The association rate constant, kass, was calculated by first plotting the change in response with time versus response (i.e. dR/dT vs R). […] The affinity constants were calculated from KD =kdiss /kass. […]

[5] = biological target: T5, TGF-β1 binding to TβRII (Homo sapiens, UniProt P01137); experiment: Competition of TGF-β1 binding to immobilized TβRII (Quantikine ELISA); conditions: 40 pM TGF-β1; fetuin 40 μM, TRH1 peptide from TβRII 20 μM; FIG. 14
T5 construct: The mature processed cytokines produced from the members of the gene family show almost 100% amino acid identity between species; purchased R&D Systems
Description: Inhibition of TGF-β1 binding to TβRII was carried out using the Quantikine ELISA kit (R&D Systems). In particular, 96 well plates were pre-coated with the extracellular domain of TβRII. […] This was followed by a 5 minute incubation with the TβRII coated ELISA wells with shaking, washing as recommended, and a 1 hr incubation with the polyclonal anti-TGF-β1 antibody. Plates were developed as per the instructions, and determinations were made in triplicate.

[6] = Table 2 (calculations repeated)

T1 sequence (P01137 279-390 limits assumed): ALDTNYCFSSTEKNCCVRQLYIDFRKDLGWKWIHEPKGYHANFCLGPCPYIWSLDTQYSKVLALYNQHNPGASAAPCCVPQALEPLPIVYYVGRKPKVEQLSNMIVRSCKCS
T5 sequence (P01137 279-390 limits assumed): as above

Fetuin: Bovine fetal fetuin, glycoprotein obtained by ammonium sulfate fractionation of FCS and gel filtration (Sigma)
Maximal effect, percent neutralization ([1]; 12 pM TGF-β1, FIG. 1): approximately 150% | IC50 ([1]; 18 pM human TGF-β1, FIG. 12, read-out: IC50, blocking of anti-proliferative activity of exogenously-added TGF-β1): ~3000 nM | kass ([2]; Table 1): 550 ± 120 M⁻¹ s⁻¹ | kass [2, 6]: 550 ± 120 M⁻¹ s⁻¹ | kass ([3]; Table 1): 1700 ± 300 M⁻¹ s⁻¹ | kass ([3]; Table 1, listed as fetuin): 1700 M⁻¹ s⁻¹ | kdiss ([3]; Table 1, listed as fetuin): 6.2e-05 s⁻¹ | kass [3, 6]: 2400 ± 1200 M⁻¹ s⁻¹ | kdiss [3, 6]: 6.5e-05 s⁻¹ | Kd ([3]; Table 2 (calculations repeated), KD = kdiss/kass): 27 nM | kass [4]: 2900 ± 500 M⁻¹ s⁻¹ | inhibition of TGF-β1 binding to immobilized recombinant TβRII [5]: competitive inhibitors
